target: HLA-A*02:01 (Homo sapiens, UniProt P04439, D140Y/D185E/D98H/E176V/E277Q/G131W/G231S/I119V/I121R/I166T/I218V/L300P/L318F/N151K/N90K/P208A/P217A/Q86G/Q94H/R138H/R169H/T345S); test: MHC binding assay: UV-ligand exchange with beta2m ELISA; settings: MHC class I binding score, yield of UV-ligand exchange
Excerpt: Candidate peptides for T cell based therapies according to the present invention were further tested for their MHC binding capacity (affinity). The individual peptide-MHC complexes were produced by UV-ligand exchange, where a UV-sensitive peptide is cleaved upon UV-irradiation, and exchanged with the peptide of interest as analyzed. Only peptide candidates that can effectively bind and stabilize the peptide-receptive MHC molecules prevent dissociation of the MHC complexes. To determine the yield of the exchange reaction, an ELISA was performed based on the detection of the light chain (β2m) of stabilized MHC complexes. The assay was performed as generally described in Rodenko et al. (Rodenko et al., 2006).
96 well MAXISorp plates (NUNC) were coated over night with 2 ug/ml streptavidin in PBS at room temperature, washed 4× and blocked for 1 h at 37° C. in 2% BSA containing blocking buffer. Refolded HLA-A*02:01/MLA-001 monomers served as standards, covering the range of 15-500 ng/ml. Peptide-MHC monomers of the UV-exchange reaction were diluted 100 fold in blocking buffer. Samples were incubated for 1 h at 37° C., washed four times, incubated with 2 ug/ml HRP conjugated anti-β2m for 1 h at 37° C., washed again and detected with TMB solution that is stopped with […]. Absorption was measured at 450 nm. Candidate peptides that show a high exchange yield (preferably higher than 50%, most preferred higher than 75%) are generally preferred for a generation and production of antibodies or fragments thereof, and/or T cell receptors or fragments thereof, as they show sufficient avidity to the MHC molecules and prevent dissociation of the MHC complexes.

Row | Substance | Peptide exchange
1 | 14 (VLAKPGVISV; listed as Homo sapiens) [compound 14] | ++ (20%-49% = ++)
2 | 44 (VLLDKIKNLQV; listed as Homo sapiens) [compound 44] | ++ (20%-49% = ++)
3 | 10 (FLVDGSSAL; listed as Homo sapiens) [compound 10] | ++ (20%-49% = ++)
4 | 12 (FVSEIVDTV; listed as Homo sapiens) [compound 12] | +++ (50%-75% = +++)
5 | 18 (SLLDDELMSL; listed as Homo sapiens) [compound 18] | ++ (20%-49% = ++)
6 | 9 (FLFDGSANLV; listed as Homo sapiens) [compound 9] | ++ (20%-49% = ++)
7 | 57 (FLGKVVIDV; listed as Homo sapiens) [compound 57] | ++++ (>=75% = ++++)
8 | 31 (SLAAAAGKQEL; listed as Homo sapiens) [compound 31] | ++ (20%-49% = ++)
9 | 49 (NLKGTFATL; listed as Homo sapiens) [compound 49] | + (<20% = +)
10 | 26 (SLKEEVGEEAIV; listed as Homo sapiens) [compound 26] | ++ (20%-49% = ++)
11 | 22 (TLDGAAVNQV; listed as Homo sapiens) [compound 22] | ++ (20%-49% = ++)
12 | 28 (YLQGQRLDNVV; listed as Homo sapiens) [compound 28] | ++ (20%-49% = ++)
13 | 29 (FLQEYLDAI; listed as Homo sapiens) [compound 29] | +++ (50%-75% = +++)
14 | 40 (FILDSAETTTL; listed as Homo sapiens) [compound 40] | ++ (20%-49% = ++)
15 | 51 (ALMLQGVDL; listed as Homo sapiens) [compound 51] | ++ (20%-49% = ++)
16 | 52 (RMVEEIGVEL; listed as Homo sapiens) [compound 52] | ++ (20%-49% = ++)
17 | 2 (SLQEEHVAVA; listed as Homo sapiens) [compound 2] | ++ (20%-49% = ++)
18 | 1 (FLAQQESEI; listed as Homo sapiens) [compound 1] | ++ (20%-49% = ++)
19 | 4 (SVDVSPPKV; listed as Homo sapiens) [compound 4] | ++ (20%-49% = ++)
20 | 8 (IVDDLTINL; listed as Homo sapiens) [compound 8] | ++ (20%-49% = ++)
21 | 48 (ALTQTGGPHV; listed as Homo sapiens) [compound 48] | ++ (20%-49% = ++)
22 | 67 (KMFFLIDKV; listed as Homo sapiens) [compound 67] | +++ (50%-75% = +++)
23 | 16 (APVNVTTEVKSV; listed as Homo sapiens) [compound 16] | ++ (20%-49% = ++)
24 | 33 (SLDSRLELA; listed as Homo sapiens) [compound 33] | ++ (20%-49% = ++)
25 | 15 (SLANNVTSV; listed as Homo sapiens) [compound 15] | ++ (20%-49% = ++)
26 | 60 (YLEEDVYQL; listed as Homo sapiens) [compound 60] | ++ (20%-49% = ++)
27 | 47 (KMDASLGNLFA; listed as Homo sapiens) [compound 47] | ++++ (>=75% = ++++)

Row | Substance | Peptide exchange
28 | 55 (YLDAMMNEA; listed as Homo sapiens) [compound 55] | ++ (20%-49% = ++)
29 | 56 (GLLDYATGAIGSV; listed as Homo sapiens) [compound 56] | +++ (50%-75% = +++)
30 | 7 (AQQESEIAGI; listed as Homo sapiens) [compound 7] | ++ (20%-49% = ++)
31 | 5 (LLVDDSFLHTV; listed as Homo sapiens) [compound 5] | +++ (50%-75% = +++)
32 | 43 (RLDQRVPQI; listed as Homo sapiens) [compound 43] | ++ (20%-49% = ++)
33 | 54 (VLLSEIEVA; listed as Homo sapiens) [compound 54] | ++ (20%-49% = ++)
34 | 58 (GLAAFKAFL; listed as Homo sapiens) [compound 58] | +++ (50%-75% = +++)
35 | 24 (GLLEELVTV; listed as Homo sapiens) [compound 24] | ++ (20%-49% = ++)
36 | 11 (FLYKIIDEL; listed as Homo sapiens) [compound 11] | +++ (50%-75% = +++)
37 | 59 (KLFNLSKEDDV; listed as Homo sapiens) [compound 59] | ++ (20%-49% = ++)
38 | 13 (LLAGQTYHV; listed as Homo sapiens) [compound 13] | ++ (20%-49% = ++)
39 | 6 (VLISLKQAPLV; listed as Homo sapiens) [compound 6] | ++ (20%-49% = ++)
40 | 65 (YLYDSETKNA; listed as Homo sapiens) [compound 65] | ++ (20%-49% = ++)
41 | 35 (VMDSGDGVTHTV; listed as Homo sapiens) [compound 35] | ++ (20%-49% = ++)
42 | 27 (YLQGQRLDNV; listed as Homo sapiens) [compound 27] | ++ (20%-49% = ++)
43 | 53 (SSFGGLGGGSV; listed as Homo sapiens) [compound 53] | + (<20% = +)
44 | 17 (FLKSGDAAIV; listed as Homo sapiens) [compound 17] | ++ (20%-49% = ++)
45 | 39 (TLLSNLEEA; listed as Homo sapiens) [compound 39] | ++ (20%-49% = ++)
46 | 46 (TFAPVNVTTEVKSV; listed as Homo sapiens) [compound 46] | ++ (20%-49% = ++)
47 | 38 (NLVEKTPALV; listed as Homo sapiens) [compound 38] | +++ (50%-75% = +++)
48 | 66 (ALLSGLREA; listed as Homo sapiens) [compound 66] | +++ (50%-75% = +++)
49 | 42 (KLVDKSTEL; listed as Homo sapiens) [compound 42] | ++ (20%-49% = ++)
50 | 32 (SLAAAAGKQELA; listed as Homo sapiens) [compound 32] | + (<20% = +)
51 | 25 (SLKEEVGEEAI; listed as Homo sapiens) [compound 25] | ++ (20%-49% = ++)
52 | 30 (VVDEGPTGV; listed as Homo sapiens) [compound 30] | ++ (20%-49% = ++)
53 | 64 (FLVSNMLLAEA; listed as Homo sapiens) [compound 64] | +++ (50%-75% = +++)
54 | 41 (FLLDGSEGV; listed as Homo sapiens) [compound 41] | +++ (50%-75% = +++)

Reference: patent US10898561B2, “Peptides and combination of peptides for use in immunotherapy against pancreatic cancer and other cancers” (IMMATICS BIOTECHNOLOGIES GMBH, priority 2015, dated 2021)
